{"source": "paper PMC8304084", "about": "“A Concerted Action of UBA5 C-Terminal Unstructured Regions Is Important for Transfer of Activated UFM1 to UFC1” (International Journal of Molecular Sciences, 2021)", "key": {"AD^1–330": {"tested_on": "AD^1–330", "assay": "NMR titration of R1-R2-R3^325–404 with UBA5 AD^1–330", "format": "binding", "details": "2-fold molar excess of AD^1–330, 900 MHz", "experimental": "All NMR experiments were performed at a sample temperature of 25 °C on Bruker 600, 700, 800, 900, and 950 MHz spectrometers equipped with cryogenic probes, and a 500 MHz spectrometer equipped with a room-temperature triple-resonance probe. All NMR spectra were analyzed with the Sparky 3.114 software (University of California, San Francisco, USA). For NMR titration experiments, the non-labeled UBA5 peptides were titrated to 100 µM ^13C,^15N-labeled UFC1 to a final molar ratio of 1:8 (UFC1:UBA5 peptide). Conversely, 100 µM ^13C,^15N-labeled UBA5 peptides were titrated with non-labeled UFC1 to a final molar ratio 1:4 (UBA5 peptide:UFC1). 2D ^1H-^15N correlation spectra ([^15N,^1H] TROSY-HSQC) were recorded at each titration point. The same types of spectra were recorded to estimate binding of ^13C,^15N-labeled UFC1 (75 µM) to non-labeled UBA5, UBA5~UFM1 and UFM1 at 1:2 molar ratios. CSP values, Δδ, were calculated for each individual amide group using the formula Δδ = [(ΔδN/5)^2 + Δδ^2HN)]^1/2. […]\nexperiment, non‐labelled AD1–330 construct was added to the 15N‐labelled R1‐R2‐R3325–404 peptide to a 2‐fold molar excess.\nRepresentative area of [15N,1H] TROSY‐HSQC spectra recorded at 900 MHz for R1‐R2‐R3325–404 in free form (red contours) and in presence of AD1–330 (blue contours) are overlaid. […]"}, "LC3B": {"target": "T1, LC3B (Homo sapiens, UniProt Q9GZQ8)", "T1 construct": "LC3B, residues 5–120; ubiquitin tag Ub3 (vector pETm60_Ub3) (cleaved yes); made in house; host or cells: E. coli T7 Express", "assay": "ITC, UBA5 peptides vs LC3B", "format": "binding", "details": "25 °C, vs LC3B", "description": "To understand how the UBA5 C-terminus participates in the ufmylation cascade, we performed isothermal titration calorimetry (ITC) experiments, in which we titrated UBA5 C-terminal peptides (see Table 1) to the UBA5 AD, UFC1, UFM1 and representative LC3/GABARAP proteins (Figure 2A, Supplementary Figure S2A–D and Table 2).\nAll proteins and peptides were expressed in E.Coli T7 Express (New England Biolabs GmbH, Frankfurt, Germany) cells in LB or M9 (to obtain ^15N- and ^13C,^15N-labeled polypeptides) media according to the protocol described in [33, 36]. For protein purification, bacterial cell pellets were resuspended in lysis buffer (50 mM Tris-HCl pH = 7.5, 100 mM NaCl, 5% glycerol, 5 mM PIC (protease inhibitor cocktail)) and lysed via sonication (TT13 Sonotrode, 40% amplitude, for 6 × 1 min with a 0.5/0.5-s pulse). Lysates were centrifuged for 45 min at 17,000× g at 4 °C. Supernatants were loaded onto a His Trap Fast Flow 5 mL column (GE Healthcare, München, Germany) equilibrated in loading buffer (50 mM Tris-HCl pH = 8.0, 250 mM NaCl, 1% glycerol, 20 mM imidazole). The column was washed with loading buffer for 5–10 CV and protein was eluted with elution buffer (50 mM Tris-HCl pH = 8, 250 mM NaCl, 1% glycerol, 400 mM imidazole). Simultaneous TEV cleavage (1 mg TEV protease was added to 100 mg peptides/proteins) and buffer exchange to loading buffer via dialysis was performed over night at 4 °C. After reverse IMAC, proteins were concentrated with conical concentrators (Millipore Merck, Darmstadt, Germany) and loaded on a Superdex 10/60 75 or 200 column (GE Healthcare, München, Germany) for further purification and equilibration with ITC/NMR buffer (25 mM HEPES pH = 7.5, 100 mM NaCl). For structural NMR spectroscopy, buffer containing 50 mM Tris-HCl pH = 7.5, 100 mM NaCl was used. Prior to NMR experiments, TCEP and protease inhibitors cocktail were added to the samples to final concentrations 1 and 5 mM, respectively. Purified peptides and protein were concentrated and stored at −80 °C. The protein and peptide concentrations were calculated from the UV absorption at 280 nm by Nanodrop spectrophotometer (Thermo Scientific, Langenselbold, Germany).\nAll ITC experiments were performed at 25 °C using a VP-ITC microcalorimeter (Malvern Panalytical Ltd., Malvern, UK). Peptides in concentration of ~400 µM were titrated into 20–25 µM solutions of corresponding binding partner at a stirring speed of 307 rpm. The raw data were corrected on the dilution heat of peptides obtained in independent experiment (titration of the peptide in syringe into the ITC/NMR buffer in the measuring cell). Pre-titration delay was set to 180 s, interval between titration steps was experimentally adjusted to avoid kinetic contribution to the observed heat effects and set to 200 s. A single ITC profile was collected for each type of interaction. The ITC data were analyzed based on a “one-site” binding model with MicroCal ITC software implemented in Origin 7.0."}}, "data": [{"substance": "R1-R2-R3^325–404: UBA5 C-terminal part, residues 325–404 (recombinant, E. coli)", "values": [{"measurement": "interaction with UBA5 AD", "setting": "AD^1–330", "result": "No interactions"}, {"measurement": "ΔG", "setting": "LC3B", "result": -30.7, "unit": "kJ/mol"}, {"measurement": "ΔS", "setting": "LC3B", "result": 8.86, "unit": "cal mol^−1 K^−1"}, {"measurement": "−T*ΔS", "setting": "LC3B", "result": -11, "unit": "kJ/mol"}, {"measurement": "KA*10^−6", "setting": "LC3B; value is KA × 10^−6, ± = fitting error", "result": "0.24 ± 0.09", "unit": "M^−1"}]}]}
